The values that follow come from article PMC9700037, “Inflammasome sensor NLRP1 disease variant M1184V promotes autoproteolysis and DPP9 complex formation by stabilizing the FIIND domain” (The Journal of Biological Chemistry, 2022).

One series concerns the target T1, NLRP1-FIIND (M1184V) (human, UniProt Q9C000 1064-1376, M1184V).
T1 construct: NLRP1 FIIND domain (ZU5-UPA), human, residues 1064-1376 of isoform 1, natural variant M1184V; Mostly autocleaved between F1212 and S1213, the fragments stay together; GST is still on the protein during the GST pull-down of the co-expression experiments and is cut off by TEV before SEC, SEC-MALS and SPR; also called M1184V variant FIIND; source: also co-expressed with His6-DPP9 with or without …
T1 sequence (looked up): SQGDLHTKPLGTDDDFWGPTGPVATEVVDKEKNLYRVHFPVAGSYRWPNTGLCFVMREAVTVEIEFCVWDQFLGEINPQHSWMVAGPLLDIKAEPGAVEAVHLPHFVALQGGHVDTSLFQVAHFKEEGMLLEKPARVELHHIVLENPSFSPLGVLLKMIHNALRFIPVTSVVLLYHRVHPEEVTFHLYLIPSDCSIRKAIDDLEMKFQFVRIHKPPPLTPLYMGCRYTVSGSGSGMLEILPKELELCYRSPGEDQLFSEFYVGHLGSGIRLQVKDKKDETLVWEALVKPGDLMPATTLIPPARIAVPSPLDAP
Nature of the series: SEC-MALS; co-eluting SEC fractions of FIIND, DPP9 and free UPA co-expressed in Sf9 and co-purified; 0.5-1.0 mg/ml, Superose 6 increase (10/300) GL, buffer A without glycerol. Conditions: partners not purified.

For series [1], the target named is T2, biotin-MBP-NLRP1 M1184V (Avi-MBP-tev-NLRP1 M1184V) (human, UniProt Q9C000 1-1473, M1184V, biotin (on the Avi tag, BirA co-expressed)).
T2 construct: NLRP1, human, isoform 1, residues 1-1473, natural variant M1184V; also called M1184VSf9; source: Sf9 insect cells, co-expressed with BirA, purified (multimer or void SEC fraction); not shown: Avi, N-terminal, kept; MBP, N-terminal, kept
T2 sequence (looked up): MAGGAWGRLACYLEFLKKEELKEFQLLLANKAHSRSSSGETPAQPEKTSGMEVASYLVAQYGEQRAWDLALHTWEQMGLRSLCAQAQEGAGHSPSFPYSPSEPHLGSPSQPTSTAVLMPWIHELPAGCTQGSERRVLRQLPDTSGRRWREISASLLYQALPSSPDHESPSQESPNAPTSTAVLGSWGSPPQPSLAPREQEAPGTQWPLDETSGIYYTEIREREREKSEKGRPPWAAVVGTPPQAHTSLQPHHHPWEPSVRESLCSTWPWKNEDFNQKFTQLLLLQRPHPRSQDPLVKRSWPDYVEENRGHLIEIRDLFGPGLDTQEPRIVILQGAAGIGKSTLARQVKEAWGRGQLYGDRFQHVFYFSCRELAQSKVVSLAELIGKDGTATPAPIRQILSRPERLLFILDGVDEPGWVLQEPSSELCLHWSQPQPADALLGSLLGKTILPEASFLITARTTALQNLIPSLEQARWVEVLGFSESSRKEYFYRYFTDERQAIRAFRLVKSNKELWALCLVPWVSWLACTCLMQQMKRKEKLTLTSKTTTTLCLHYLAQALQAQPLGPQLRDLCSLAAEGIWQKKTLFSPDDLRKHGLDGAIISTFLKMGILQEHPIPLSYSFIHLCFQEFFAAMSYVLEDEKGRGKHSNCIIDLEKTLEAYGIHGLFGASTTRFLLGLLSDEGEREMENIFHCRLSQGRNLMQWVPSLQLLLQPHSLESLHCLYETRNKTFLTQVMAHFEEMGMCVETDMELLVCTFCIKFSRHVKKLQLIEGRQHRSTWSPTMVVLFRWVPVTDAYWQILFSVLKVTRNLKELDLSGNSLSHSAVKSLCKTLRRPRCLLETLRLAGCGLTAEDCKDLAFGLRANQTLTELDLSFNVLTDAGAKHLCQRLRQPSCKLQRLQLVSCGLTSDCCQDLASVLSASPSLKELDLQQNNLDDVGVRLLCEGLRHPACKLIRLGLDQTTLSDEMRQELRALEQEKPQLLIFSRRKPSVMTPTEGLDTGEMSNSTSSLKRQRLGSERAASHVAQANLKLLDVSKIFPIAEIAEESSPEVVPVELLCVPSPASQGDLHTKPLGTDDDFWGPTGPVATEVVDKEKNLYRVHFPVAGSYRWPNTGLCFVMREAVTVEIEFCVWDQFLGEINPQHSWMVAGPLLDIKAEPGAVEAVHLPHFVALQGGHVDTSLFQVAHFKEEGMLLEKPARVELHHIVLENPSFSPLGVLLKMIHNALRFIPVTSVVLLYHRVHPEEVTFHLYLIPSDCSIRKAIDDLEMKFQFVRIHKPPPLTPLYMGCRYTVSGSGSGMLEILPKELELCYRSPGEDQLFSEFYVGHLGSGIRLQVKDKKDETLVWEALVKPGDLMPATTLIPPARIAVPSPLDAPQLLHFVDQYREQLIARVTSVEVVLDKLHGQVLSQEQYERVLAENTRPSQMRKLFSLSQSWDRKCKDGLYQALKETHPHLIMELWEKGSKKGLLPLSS
In words: SPR; Biotin-FLAG-NLRP1 (from HEK293T) or biotin-MBP-NLRP1 (from Sf9, multimer fraction) or biotin-MBP immobilised on a streptavidin chip; DPP9 injected at 78-2500 nM, single-cycle kinetics, 10 mM Hepes pH 7.5, 150 mM NaCl, 0.5 mM TCEP, 0.05% Tween-20. To be noted: both partners purified. (SPR reads the build-up and loss of mass on a sensor chip optically.)

A further series has as its target T3, Biotin-FLAG-NLRP1 M1184V (human, UniProt Q9C000 1-1473, M1184V, biotin).
T3 construct: NLRP1 full length, natural variant M1184V; the construct for purification from HEK293T and its biotinylation are not described in the methods; also called M1184VHEK; source: HEK293T cells, purified
T3 sequence (looked up): T2 sequence (looked up)
The series is described as above. To be noted: both partners purified.

Series [2] concerns the molecule itself. In words: SEC; purified full-length MBP-NLRP1, Superose 6 increase (10/300) GL, 0.5 ml/min, buffer A (25 mM Hepes pH 7.5, 150 mM NaCl, 0.5 mM TCEP, 10% glycerol); fractions checked by SDS-PAGE.

Usually stoichiometry N stands for the number of molecules, sites or subunits per partner or assembly. What is called Kd is the constant that tells how readily two partners part at equilibrium. Low values mean a tighter complex, high ones a looser complex.

B1: His6-tev-DPP9 (enzyme, UniProt Q86TI2 1-863, looked up)
chain: MATTGTPTADRGDAAATDDPAARFQVQKHSWDGLRSIIHGSRKYSGLIVNKAPHDFQFVQKTDESGPHSHRLYYLGMPYGSRENSLLYSEIPKKVRKEALLLLSWKQMLDHFQATPHHGVYSREEELLRERKRLGVFGITSYDFHSESGLFLFQASNSLFHCRDGGKNGFMVSPMKPLEIKTQCSGPRMDPKICPADPAFFSFINNSDLWVANIETGEERRLTFCHQGLSNVLDDPKSAGVATFVIQEEFDRFTGYWWCPTASWEGSEGLKTLRILYEEVDESEVEVIHVPSPALEERKTDSYRYPRTGSKNPKIALKLAEFQTDSQGKIVSTQEKELVQPFSSLFPKVEYIARAGWTRDGKYAWAMFLDRPQQWLQLVLLPPALFIPSTENEEQRLASARAVPRNVQPYVVYEEVTNVWINVHDIFYPFPQSEGEDELCFLRANECKTGFCHLYKVTAVLKSQGYDWSEPFSPGEDEFKCPIKEEIALTSGEWEVLARHGSKIWVNEETKLVYFQGTKDTPLEHHLYVVSYEAAGEIVRLTTPGFSHSCSMSQNFDMFVSHYSSVSTPPCVHVYKLSGPDDDPLHKQPRFWASMMEAASCPPDYVPPEIFHFHTRSDVRLYGMIYKPHALQPGKKHPTVLFVYGGPQVQLVNNSFKGIKYLRLNTLASLGYAVVVIDGRGSCQRGLRFEGALKNQMGQVEIEDQVEGLQFVAEKYGFIDLSRVAIHGWSYGGFLSLMGLIHKPQVFKVAIAGAPVTVWMAYDTGYTERYMDVPENNQHGYEAGSVALHVEKLPNEPNRLLILHGFLDENVHFFHTNFLVSQLIRAGKPYQLQIYPNERHSIRCPESGEHYEVTLLHFLQEYL
notes: dipeptidyl peptidase 9 (DPP9); Dimer by SEC-MALS (192 kDa); also called His6-DPP9; source: Sf9 insect cells, purified; also co-expressed with GST-tev-FIIND constructs in Sf9 and co-purified
Turning to B1, the “stoichiometry N” value with NLRP1-FIIND (M1184V) amounted to 2 DPP9 chains per FIIND. Also, the values for the Kd (in series [1]; with Biotin-FLAG-NLRP1 M1184V) were 149 nM and 144 nM, respectively.

B2: MBP-NLRP1 M1184V (full length) (natural protein, human, UniProt Q9C000 1-1473, looked up)
chain: T2 sequence (looked up)
notes: NLRP1, human, isoform 1, residues 1-1473, codon-optimized, natural variant M1184V; More autocleaved between F1212 and S1213 than the wt; source: Sf9 insect cells, purified (MBPTrap, SEC); not shown: MBP, N-terminal, kept
For B2, the binding result in series [2] was “binds”.
